{
  "source": "the supplement of paper PMC9112550",
  "about": "“Optimization of the antimicrobial peptide Bac7 by deep mutational scanning” (BMC Biology, 2022);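 further: peptides expressed intracellularly from a pBAD plasmid library in pooled LB shake-flask culture, induced with 0.3% L-arabinose, DNA abundance read by NGS, three biological replicates, DESeq2 with apeglm shrinkage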",
  "data": [
    {"tested_on": "Escherichia coli TOP10", "experiment": "shrunken log2 fold change of peptide-encoding DNA abundance (4.5 h post-induction vs induction); higher = less antimicrobial activity (less host growth inhibition)", "conditions": "time post-induction: 4.5 h; library: site-saturation at positions 5, 18, 19, 20", "values": [
      {"sequence": "RRIRERPPRLPRPRPRPITSPRP", "shrunken log2 fold change": 0.0102},
      {"sequence": "RRIRCRPPRLPRPRPRPDMVPRP", "shrunken log2 fold change": -0.184},
      {"sequence": "RRIRTRPPRLPRPRPRPVLWPRP", "shrunken log2 fold change": 0.117},
      {"sequence": "RRIRMRPPRLPRPRPRPDNLPRP", "shrunken log2 fold change": -0.205},
      {"sequence": "RRIRVRPPRLPRPRPRPTHYPRP", "shrunken log2 fold change": -0.0832},
      {"sequence": "RRIRYRPPRLPRPRPRPHNYPRP", "shrunken log2 fold change": -0.365},
      {"sequence": "RRIRSRPPRLPRPRPRPYQFPRP", "shrunken log2 fold change": 0.0245},
      {"sequence": "RRIRYRPPRLPRPRPRPWLWPRP", "shrunken log2 fold change": 0.0662},
      {"sequence": "RRIRERPPRLPRPRPRPDCLPRP", "shrunken log2 fold change": -0.428},
      {"sequence": "RRIRKRPPRLPRPRPRPFQWPRP", "shrunken log2 fold change": 0.0233},
      {"sequence": "RRIRSRPPRLPRPRPRPDSTPRP", "shrunken log2 fold change": -0.481},
      {"sequence": "RRIRYRPPRLPRPRPRPMPHPRP", "shrunken log2 fold change": -0.202},
      {"sequence": "RRIRMRPPRLPRPRPRPQHTPRP", "shrunken log2 fold change": -0.0951},
      {"sequence": "RRIRSRPPRLPRPRPRPTYIPRP", "shrunken log2 fold change": -0.598},
      {"sequence": "RRIRCRPPRLPRPRPRPMDHPRP", "shrunken log2 fold change": -0.904},
      {"sequence": "RRIRGRPPRLPRPRPRPMGGPRP", "shrunken log2 fold change": 0.458},
      {"sequence": "RRIRKRPPRLPRPRPRPVKQPRP", "shrunken log2 fold change": 0.0206},
      {"sequence": "RRIRGRPPRLPRPRPRPRQTPRP", "shrunken log2 fold change": -0.144},
      {"sequence": "RRIRHRPPRLPRPRPRPCFPPRP", "shrunken log2 fold change": -0.517},
      {"sequence": "RRIRSRPPRLPRPRPRPIASPRP", "shrunken log2 fold change": 0.0102},
      {"sequence": "RRIRKRPPRLPRPRPRPICLPRP", "shrunken log2 fold change": 0.141},
      {"sequence": "RRIRWRPPRLPRPRPRPEMHPRP", "shrunken log2 fold change": 0.952},
      {"sequence": "RRIRWRPPRLPRPRPRPDSVPRP", "shrunken log2 fold change": -0.0816},
      {"sequence": "RRIRGRPPRLPRPRPRPEMTPRP", "shrunken log2 fold change": 3.26},
      {"sequence": "RRIRFRPPRLPRPRPRPNQWPRP", "shrunken log2 fold change": -0.21},
      {"sequence": "RRIRCRPPRLPRPRPRPNWYPRP", "shrunken log2 fold change": 0.09},
      {"sequence": "RRIRHRPPRLPRPRPRPRYGPRP", "shrunken log2 fold change": -0.629},
      {"sequence": "RRIRWRPPRLPRPRPRPFGNPRP", "shrunken log2 fold change": -0.0165},
      {"sequence": "RRIRIRPPRLPRPRPRPPIYPRP", "shrunken log2 fold change": -0.592},
      {"sequence": "RRIRSRPPRLPRPRPRPETCPRP", "shrunken log2 fold change": 0.152},
      {"sequence": "RRIRCRPPRLPRPRPRPCNTPRP", "shrunken log2 fold change": -0.306},
      {"sequence": "RRIRSRPPRLPRPRPRPQHDPRP", "shrunken log2 fold change": -0.227},
      {"sequence": "RRIRHRPPRLPRPRPRPGQHPRP", "shrunken log2 fold change": -0.372},
      {"sequence": "RRIRQRPPRLPRPRPRPLHQPRP", "shrunken log2 fold change": -0.172},
      {"sequence": "RRIRDRPPRLPRPRPRPYYAPRP", "shrunken log2 fold change": -0.201},
      {"sequence": "RRIRHRPPRLPRPRPRPQAYPRP", "shrunken log2 fold change": -0.451},
      {"sequence": "RRIRGRPPRLPRPRPRPVADPRP", "shrunken log2 fold change": 1.34},
      {"sequence": "RRIRGRPPRLPRPRPRPSDVPRP", "shrunken log2 fold change": 0.0304},
      {"sequence": "RRIRPRPPRLPRPRPRPCSGPRP", "shrunken log2 fold change": -0.0356},
      {"sequence": "RRIRVRPPRLPRPRPRPISRPRP", "shrunken log2 fold change": 0.107},
      {"sequence": "RRIRERPPRLPRPRPRPVPQPRP", "shrunken log2 fold change": -0.195},
      {"sequence": "RRIRERPPRLPRPRPRPWRSPRP", "shrunken log2 fold change": 0.196},
      {"sequence": "RRIRVRPPRLPRPRPRPWYPPRP", "shrunken log2 fold change": -0.884},
      {"sequence": "RRIRARPPRLPRPRPRPMGQPRP", "shrunken log2 fold change": 0.229},
      {"sequence": "RRIRRRPPRLPRPRPRPDQNPRP", "shrunken log2 fold change": 0.327},
      {"sequence": "RRIRCRPPRLPRPRPRPMMLPRP", "shrunken log2 fold change": -0.117},
      {"sequence": "RRIRARPPRLPRPRPRPHLDPRP", "shrunken log2 fold change": 0.324},
      {"sequence": "RRIRNRPPRLPRPRPRPATCPRP", "shrunken log2 fold change": -0.00428},
      {"sequence": "RRIRDRPPRLPRPRPRPEGDPRP", "shrunken log2 fold change": 0.502},
      {"sequence": "RRIRTRPPRLPRPRPRPGACPRP", "shrunken log2 fold change": -0.234},
      {"sequence": "RRIRHRPPRLPRPRPRPLNQPRP", "shrunken log2 fold change": -0.17},
      {"sequence": "RRIRRRPPRLPRPRPRPVNPPRP", "shrunken log2 fold change": 0.391},
      {"sequence": "RRIRLRPPRLPRPRPRPKMWPRP", "shrunken log2 fold change": 0.485},
      {"sequence": "RRIRHRPPRLPRPRPRPQSIPRP", "shrunken log2 fold change": -0.0188},
      {"sequence": "RRIRIRPPRLPRPRPRPTTRPRP", "shrunken log2 fold change": -0.0487},
      {"sequence": "RRIRPRPPRLPRPRPRPMQFPRP", "shrunken log2 fold change": 0.231},
      {"sequence": "RRIRHRPPRLPRPRPRPQTDPRP", "shrunken log2 fold change": -1.36},
      {"sequence": "RRIRGRPPRLPRPRPRPRPKPRP", "shrunken log2 fold change": 1.41},
      {"sequence": "RRIRKRPPRLPRPRPRPDSTPRP", "shrunken log2 fold change": -0.0499},
      {"sequence": "RRIRHRPPRLPRPRPRPPKKPRP", "shrunken log2 fold change": -0.0115},
      {"sequence": "RRIRRRPPRLPRPRPRPQGAPRP", "shrunken log2 fold change": -0.0933},
      {"sequence": "RRIRWRPPRLPRPRPRPRSAPRP", "shrunken log2 fold change": 0.294},
      {"sequence": "RRIRIRPPRLPRPRPRPKCEPRP", "shrunken log2 fold change": 0.07},
      {"sequence": "RRIRMRPPRLPRPRPRPFYRPRP", "shrunken log2 fold change": -0.0105},
      {"sequence": "RRIRIRPPRLPRPRPRPMGCPRP", "shrunken log2 fold change": 0.00177},
      {"sequence": "RRIRVRPPRLPRPRPRPANMPRP", "shrunken log2 fold change": 0.00908},
      {"sequence": "RRIRDRPPRLPRPRPRPTREPRP", "shrunken log2 fold change": 1.46},
      {"sequence": "RRIRKRPPRLPRPRPRPRMPPRP", "shrunken log2 fold change": 0.363},
      {"sequence": "RRIRRRPPRLPRPRPRPAVAPRP", "shrunken log2 fold change": 0.66},
      {"sequence": "RRIRSRPPRLPRPRPRPSSGPRP", "shrunken log2 fold change": -0.0991},
      {"sequence": "RRIRARPPRLPRPRPRPDFTPRP", "shrunken log2 fold change": -0.0266},
      {"sequence": "RRIRHRPPRLPRPRPRPEDVPRP", "shrunken log2 fold change": -0.00992},
      {"sequence": "RRIRHRPPRLPRPRPRPVAQPRP", "shrunken log2 fold change": 0.0207},
      {"sequence": "RRIRLRPPRLPRPRPRPMLKPRP", "shrunken log2 fold change": -0.295},
      {"sequence": "RRIRNRPPRLPRPRPRPYAFPRP", "shrunken log2 fold change": 0.0147}
    ]}
  ]
}
